Reference: PMC9786172 (Molecules, 2022)
Each block holds one compound with its values, some of them ahead of it.

Tests used:
in vivo = assay: in vivo; parameters: species or system Sprague-Dawley rat; settings: rat
Procedure: Chromatographic analysis was performed on a Shimadzu Nexera LC-30AD UPLC system, and mass spectrometric detection was performed on an LCMS-8050 triple quadrupole mass spectrometer (Shimadzu Co., Kyoto, Japan) in the positive ESI and MRM mode. […] The gradient elution of the mobile phase consisting of 0.1% formic acid in water (solvent A) and 0.1% formic acid in acetonitrile (solvent B) was performed at a flow rate of 0.3 mL/min as follows (solvent A:solvent B, v/v): maintained at 19.3 for 0.01 min; ramped from 19.3 to 39.6 for 2.49 min; maintained at 39.6 for 0.01 min; ramped from 39.6 to 90 for 2.99 min; reverted to 19.3 for 0.01 min; and maintained for 1.99 min (total run time: 7.5 min). The ion source parameters were set as follows: nebulizing gas flow, 3 L/min; drying gas flow, 10 L/min; heating gas flow, 10 L/min; interface temperature, 300 °C; desolvation temperature, 250 °C; and heating block temperature, 400 °C. […] Rats underwent surgical implantation of a cannula in the femoral artery under anesthesia, as previously described. The LOC was dissolved in phosphate-buffered saline (pH 5.7). […] A blood sample of approximately 0.3 mL was collected via femoral artery cannulation at various time points (0, 1, 3, 5, 10, 20, 30, 60, 90, 120, 180, 240, 360, 480, and 600 min), then collected in heparin pre-treated microcentrifuge tubes. These blood samples were centrifuged at 4000× g for 10 min to obtain plasma and were frozen at −20 °C until analysis. Non-compartmental analysis was performed using Phoenix WinNonlin ver. 3.1 (Certara USA Inc., Princeton, NJ, USA) to estimate the following pharmacokinetic parameters: AUClast; total area under the plasma concentration versus time curve from time zero to time infinity (AUCinf); Cmax; Tmax; t1/2; and MRTinf. Values were obtained directly from the concentration–time plot. All values are reported as the mean ± standard deviation.

[1] = Stability of analytes in rat plasma samples (method validation)
Procedure: QC samples were prepared using the same process as that used for the calibration standards.
Plasma samples (100 µL) were mixed with 300 µL of 5% formic acid (in water) and vortexed for 5 min. Then, 500 µL acetonitrile of containing 20 ng/mL IS was added to the resultant mixture and vortexed for 5 min. After centrifugation at 14,500× g for 10 min at 4 °C, 800 µL of the supernatant was collected, dried under vacuum using a SpeedVac (Eyela, Tokyo, Japan), reconstituted with 50 μL of methanol, and injected into the LC-MS/MS system.
Using the calibration standard and QC samples, the present LC-MS/MS method was validated in terms of its selectivity, LLOQ, linearity, accuracy, precision, recovery, and stability according to the United States Food and Drug Administration guidelines for bioanalytical method validation [20].
Stability was determined under various analytical handling and storage conditions, such as bench-top, freeze–thaw, post-preparative, and long-term storage, at two QC levels (LQC and HQC).

[2] = in vivo; cited from earlier work

Structure (SMILES): CCCCCCCC/C=C\CCCCCCCC(=O)OC[C@H](NC(=O)[C@H](Cc1c[nH]c2ccccc12)NC(=O)[C@H](Cc1c[nH]cn1)NC(=O)[C@@H]1CCC(=O)N1)C(=O)N[C@@H](Cc1ccc(O)cc1)C(=O)N[C@H](CC(C)C)C(=O)N[C@@H](CC(C)C)C(=O)N[C@@H](CCCNC(=N)N)C(=O)N1CCC[C@H]1C(=O)NCC [LOC]
Tmax (in vivo; male, Sprague-Dawley, sc): 300 min
half-life (in vivo; male, Sprague-Dawley, sc): 172 ± 66 min
level at 1 h (in vivo; male, Sprague-Dawley, sc, 0.122 mg/kg): 11.7 ng/mL
Autosampler stability (percentage of drug remaining), LQC ([1]; rat plasma samples, post-preparative, 3 ng/mL, 10 °C for 24 h in the autosampler, LC-MS/MS, mean ± SD, n = 5): 102 ± 9%
Autosampler stability (percentage of drug remaining), HQC ([1]; rat plasma samples, post-preparative, 800 ng/mL, 10 °C for 24 h in the autosampler, LC-MS/MS, mean ± SD, n = 5): 92.7 ±1.2%
Bench-top stability (percentage of drug remaining), LQC ([1]; rat plasma, 3 ng/mL, room temperature for 3 h, LC-MS/MS, mean ± SD, n = 5): 105 ± 7%
Freeze-thaw stability (percentage of drug remaining), LQC ([1]; rat plasma, 3 ng/mL, three freezing and thawing cycles every 12 h at −20 °C, LC-MS/MS, mean ± SD, n = 5): 107 ± 4%
Long-term stability (percentage of drug remaining), LQC ([1]; rat plasma, 3 ng/mL, −20 °C for 30 d, LC-MS/MS, mean ± SD, n = 5): 91.2 ± 4.0%
Bench-top stability (percentage of drug remaining), HQC ([1]; rat plasma, 800 ng/mL, room temperature for 3 h, LC-MS/MS, mean ± SD, n = 5): 97.7± 2.0%
Freeze-thaw stability (percentage of drug remaining), HQC ([1]; rat plasma, 800 ng/mL, three freezing and thawing cycles every 12 h at −20 °C, LC-MS/MS, mean ± SD, n = 5): 107 ± 4%
Long-term stability (percentage of drug remaining), HQC ([1]; rat plasma, 800 ng/mL, −20 °C for 30 d, LC-MS/MS, mean ± SD, n = 5): 93.4 ± 2.6%
Recovery values after exposure to different stability conditions ([1]; rat plasma, 3 and 800 ng/mL, range over bench-top, autosampler, freeze-thaw and long-term conditions): 91.2–107%

Tmax (in vivo; male, Sprague-Dawley, sc): 15 min
half-life (in vivo; male, Sprague-Dawley, sc): 38.2 ± 4.3 min
Calculated plasma concentration at 60 min after subcutaneous administration of LOC (in vivo): 1.86 ng/mL
Structure (SMILES): CCNC(=O)[C@@H]1CCCN1C(=O)[C@H](CCCNC(=N)N)NC(=O)[C@H](CC(C)C)NC(=O)[C@@H](CC(C)C)NC(=O)[C@H](Cc1ccc(O)cc1)NC(=O)[C@H](CO)NC(=O)[C@H](Cc1c[nH]c2ccccc12)NC(=O)[C@H](Cc1c[nH]cn1)NC(=O)[C@@H]1CCC(=O)N1 [Leuprolide, pyroGlu-His-Trp-Ser-Tyr-D-Leu-Leu-Arg-Pro-NHEt, reference compound]
MRTinf in the intravenous group [2]: 28.1 min
